From paper PMC9838878 (Science (New York, N.Y.), 2022) come the findings set out here.

This assay has as its target recombinant KIT-extracellular domain-Fc fragment fusion protein (KIT-ECD-Fc) (human, UniProt P10721 26-524). Description: MST.

Sequence of recombinant KIT-extracellular domain-Fc fragment fusion protein (KIT-ECD-Fc) (P10721 26-524): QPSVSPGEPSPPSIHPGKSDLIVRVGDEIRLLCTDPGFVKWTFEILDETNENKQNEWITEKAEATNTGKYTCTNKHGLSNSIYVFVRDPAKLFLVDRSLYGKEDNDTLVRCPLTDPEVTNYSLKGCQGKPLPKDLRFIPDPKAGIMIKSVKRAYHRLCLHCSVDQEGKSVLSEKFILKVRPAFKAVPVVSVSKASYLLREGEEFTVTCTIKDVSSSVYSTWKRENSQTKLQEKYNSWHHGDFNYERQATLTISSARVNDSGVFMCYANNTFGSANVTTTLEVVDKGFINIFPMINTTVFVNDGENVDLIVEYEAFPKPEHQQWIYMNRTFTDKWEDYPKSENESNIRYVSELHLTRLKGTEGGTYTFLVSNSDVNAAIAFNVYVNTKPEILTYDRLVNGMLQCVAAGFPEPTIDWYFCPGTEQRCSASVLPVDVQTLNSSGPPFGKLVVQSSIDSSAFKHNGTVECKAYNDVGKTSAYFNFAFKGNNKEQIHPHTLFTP

B1: meteorin-like (METRNL), protein added as ligand (ligand, human, UniProt Q641Q3 46-311, looked up)
chain: QYSSDRCSWKGSGLTHEAHRKEVEQVYLRCAAGAVEWMYPTGALIVNLRPNTFSPARHLTVCIRSFTDSSGANIYLEKTGELRLLVPDGDGRPGRVQCFGLEQGGLFVEATPQQDIGRRTTGFQYELVRRHRASDLHELSAPCRPCSDTEVLLAVCTSDFAVRGSIQQVTHEPERQDSAIHLRVSRLYRQKSRVFEPVPEGDGHWQGRVRTLLECGVRPGHGDFLFTGHMHFGEARLGCAPRFKDFQRMYRDAQERGLNPCEVGTD
With B1, the binding result was “binds”.
